PMC8811534

Target: hAGO2 (human, UniProt Q9UKV8 1-859)
Assay: EMSA

Sequence of hAGO2 (Q9UKV8 whole entry): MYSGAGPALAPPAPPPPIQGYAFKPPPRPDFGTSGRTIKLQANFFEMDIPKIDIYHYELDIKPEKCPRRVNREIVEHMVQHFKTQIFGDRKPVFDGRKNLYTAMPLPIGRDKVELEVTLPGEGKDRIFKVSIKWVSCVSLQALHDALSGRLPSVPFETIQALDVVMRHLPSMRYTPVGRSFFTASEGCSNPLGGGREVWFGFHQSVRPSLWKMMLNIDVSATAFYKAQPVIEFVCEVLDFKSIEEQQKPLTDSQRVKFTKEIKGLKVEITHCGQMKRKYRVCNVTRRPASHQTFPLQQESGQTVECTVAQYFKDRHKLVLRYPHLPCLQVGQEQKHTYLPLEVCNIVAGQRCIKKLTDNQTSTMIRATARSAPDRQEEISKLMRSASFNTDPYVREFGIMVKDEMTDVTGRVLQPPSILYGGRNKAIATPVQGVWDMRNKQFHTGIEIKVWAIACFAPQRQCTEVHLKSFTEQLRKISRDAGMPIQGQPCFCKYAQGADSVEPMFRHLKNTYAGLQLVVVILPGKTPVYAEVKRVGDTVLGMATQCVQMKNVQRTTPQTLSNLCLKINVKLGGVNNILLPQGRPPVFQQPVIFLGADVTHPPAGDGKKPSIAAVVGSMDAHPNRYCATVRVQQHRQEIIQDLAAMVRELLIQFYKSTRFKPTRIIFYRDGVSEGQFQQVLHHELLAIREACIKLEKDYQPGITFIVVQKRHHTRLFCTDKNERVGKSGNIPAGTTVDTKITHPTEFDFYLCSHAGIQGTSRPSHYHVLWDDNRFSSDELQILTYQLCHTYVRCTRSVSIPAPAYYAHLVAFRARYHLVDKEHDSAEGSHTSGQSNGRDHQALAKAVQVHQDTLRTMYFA

B1: 5'Cy5-HIS-SARS2-1 DNA-RNA hybrid (DNA:RNA)
DNA: AGCCTTTACCTCCATTAGCATAGACA
RNA: UGUCUAUGCUAAUGGAGGUAAAGGCU
B1: binds.
